From US20240343811A1 (SHANDONG SIMCERE BIOPHARMACUTICAL, published 2024)
“And” between values parts separate entries of the source, which are not always exact repeats. Equal entries are not always repeated.

Tests used:
[1] = biological target: T1, human CD16a (158V), full length, on cells (human, UniProt P08637 17-254); assay: FACS on FlpinCHO cells; no human immunoglobulin; unlabeled antibody, first batch of Table 10
T1 construct: also used as target for the bought Jurkat-NFAT reporter line stably expressing human CD16a (158V); also called FlpinCHO-human CD16a (158V); FlpinCHO-CD16a (158V)
Protocol: (§1) The required cells were scale-up cultured in a T-75 cell culture flask to the logarithmic growth phase. The medium was aspirated, and the cells were washed twice with a PBS buffer and then digested with trypsin. After the digestion was terminated, the cells were washed twice with the PBS buffer. The cells were counted, and then the cell pellet was resuspended with a [PBS+2% (w/w) BSA] blocking solution to 2×10⁶ cells/ml, and added to a 96-well FACS reaction plate at 50 μl/well. […] 50 μl/well of the antibody to be detected was added at different concentrations, and incubated on ice for 1 hour. […] The mixture was centrifuged and washed 5 times with PBS, and FACS (FACS Canto II, purchased from BD Company) was used for detection and result analysis. Data analysis was performed by software (CellQuest) to obtain the mean fluorescence intensity (MFI) of the cells. Then, software (GraphPad Prism8) was used for analysis, data fitting and EC50 value calculation.

[2] = biological target: T2, human CD16a (158F), full length, on FlpinCHO cells (human, UniProt P08637 17-254); assay: as above
Protocol: as §1

[3] = biological target: T2, human CD16a (158F), full length, on …; assay: FACS, biotinylated antibody; biotinylated antibody, no human immunoglobulin; first batch of Table 12-2
Protocol: as §1, with “The” for “The required cells were scale-up cultured in a T-75 cell culture flask to the logarithmic growth phase. The”
(§2) An antibody to be detected was labeled in advance according to the instructions of a biotin labeling kit (EZ-Link™ NHS-PEG4 Biotinylation Kit, purchased from Thermofisher Scientific, catalog number: 21455). […] Detection was performed according to the method of Example 3.1, wherein the biotinylated antibody was detected with fluorescein APC-labeled Streptavidin (High Concentration) (purchased from Biolegend, catalog number: 405243).

[4] = biological target: T1, human CD16a (158V), full length, on …; assay: cell-based or functional assay
[5] = biological target: T3, cynomolgus monkey CD16, full length, on FlpinCHO cells (cynomolgus monkey, UniProt Q8SPW2 17-254); assay: FACS on FlpinCHO cells
T3 construct: also called FlpinCHO-cyno CD16; Flipin CHO-cyno CD16
Protocol: as §1
Flipin CHO-cyno CD16 cells were subjected to FACS detection and data analysis according to the method of Example 3.1.

[6] = biological target: T1, human CD16a (158V), full length, on …; assay: FACS, biotinylated antibody; biotinylated antibody, no human immunoglobulin; first batch of Table 11-1
Protocol: as §1, with “The” for “The required cells were scale-up cultured in a T-75 cell culture flask to the logarithmic growth phase. The”
as §2

[7] = biological target: T1, human CD16a (158V), full length, on …; assay: FACS, biotinylated antibody
[8] = biological target: T2, human CD16a (158F), full length, on …; assay: FACS, biotinylated antibody
[9] = biological target: T1, human CD16a (158V), full length, on …; assay: FACS on FlpinCHO cells; no human immunoglobulin; unlabeled antibody, second batch of Table 10
Protocol: as §1

[10] = biological target: T2, human CD16a (158F), full length, on …; assay: as above
Protocol: as §1

[11] = biological target: T4, CD16 on primary human NK cells (human, UniProt P08637 17-254); assay: FACS on human NK cells, biotinylated antibody; NK cells, no human immunoglobulin; Table 15
T4 construct: whole, on cells; also called resting NK cells

[12] = biological target: T4, CD16 on primary human NK cells; assay: FACS on human NK cells, biotinylated antibody; NK cells, no human immunoglobulin; Table 29 (later experiment)
[13] = biological target: T5, human CD16b (NA1), full length, on FlpinCHO cells (human, UniProt O75015 17-200); assay: FACS on FlpinCHO cells
T5 construct: also called FlpinCHO-human CD16b (NA1)
T5 chain: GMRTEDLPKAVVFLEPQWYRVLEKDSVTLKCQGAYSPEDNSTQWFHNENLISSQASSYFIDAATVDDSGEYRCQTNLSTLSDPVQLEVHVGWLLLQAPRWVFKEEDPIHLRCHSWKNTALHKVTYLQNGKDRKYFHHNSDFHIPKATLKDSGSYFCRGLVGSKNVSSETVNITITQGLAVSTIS
Method in brief: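 EC50 values come from fitted MFI curves measured by FACS. Antibody dilutions were bound for 1 hour on ice to CD16b-transfected FlpinCHO cells suspended in PBS with 2% BSA blocking solution.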

T3 sequence (Q8SPW2 other isoform, or with tags, fused parts or gaps limits assumed): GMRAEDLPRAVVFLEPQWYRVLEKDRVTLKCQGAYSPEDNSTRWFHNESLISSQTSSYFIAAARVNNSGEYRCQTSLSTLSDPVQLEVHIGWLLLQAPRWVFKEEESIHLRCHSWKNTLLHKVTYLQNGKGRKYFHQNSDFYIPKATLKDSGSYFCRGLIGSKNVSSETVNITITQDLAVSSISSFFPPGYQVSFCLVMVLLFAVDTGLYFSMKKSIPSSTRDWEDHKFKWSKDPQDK

B1: 3G8 scFv-hFc (Fc fusion)
chain: DTVLTQSPASLAVSLGQRATISCKASQSVDFDGDSFMNWYQQKPGQPPKLLIYTTSNLESGIPARFSASGSGTDFTLNIHPVEEEDTATYYCQQSNEDPYTFGGGTKLEIKGGGGSGGGGSGGGGSQVTLKESGPGILQPSQTLSLTCSFSGFSLRTSGMGVGWIRQPSGKGLEWLAHIWWDDDKRYNPALKSRLTISKDTSSNQVFLKIASVDTADTATYYCAQINPAWFAYWGQGTLVTVSAEPKSSDKTHTCPPCPAPEEFGGPSVFLFPPKPKDTLMISRTPEVTCVVVAVSHEDPEVKFNWYVDGVEVHNAKTKPREEQYNSTYRVVSVLTVLHQDWLNGKEYKCKVSNKALPAPIEKTISKAKGQPREPQVYTLPPSREEMTKNQVSLTCLVKGFYPSDIAVEWESNGQPENNYKTTPPVLDSDGSFFLYSKLTVDKSRWQQGNVFSCSVMHEALHNHYTQKSLSLSPGK
notes: also called control antibody 3G8
EC50 [1]: 0.56 nM
EC50 [2]: ~0.82 nM
EC50 [3]: 1.73 nM
EC50, activation activity for Jurkat cell [4]: 0.03 nM
Maximum fluorescence value [4]: 153000
EC50 [5]: 2.92 nM
Maximum mean fluorescence intensity [5]: 22300
EC50 [6]: 0.7 nM
EC50 [7]: 0.99 nM
Maximum mean fluorescence intensity [7]: 7520
EC50 [8]: 3.43 nM
Maximum mean fluorescence intensity [8]: 2010
EC50 [9]: 1.13 nM
EC50 [10]: 1.63 nM
EC50 [11]: 1.99 nM
EC50 [12]: 4.45 nM
EC50 [13]: 1.22 nM and 2.13 nM
